Assay results: article PMC10303109 (Molecules, 2023)

Molecular target: receptor-binding domain (RBD) of the wild-type SARS-CoV-2 spike protein (319-541 aa) (SARS-CoV-2, UniProt P0DTC2)
Assay: cryo-EM structure
Details: both partners purified

B1: Fab domain of the antibody REGN10987 (Fab, V domains shown)
VH: QVQLVESGGGVVQPGRSLRLSCAASGFTFSNYAMYWVRQAPGKGLEWVAVISYDGSNKYYADSVKGRFTISRDNSKNTLYLQMNSLRTEDTAVYYCASGSDYGDYLLVYWGQGTLVTVSS
VL: QSALTQPASVSGSPGQSITISCTGTSSDVGGYNYVSWYQQHPGKAPKLMIYDVSKRPSGVSNRFSGSKSGNTASLTISGLQSEDEADYYCNSLTSISTWVFGGGTKLTVL
**Q.** Does B1 bind?
**A.** Result: binds
